From IntAct's records for PubMed 19955409

target: rdx, Q9VFP2-2
Sequence (Q9VFP2 456-829): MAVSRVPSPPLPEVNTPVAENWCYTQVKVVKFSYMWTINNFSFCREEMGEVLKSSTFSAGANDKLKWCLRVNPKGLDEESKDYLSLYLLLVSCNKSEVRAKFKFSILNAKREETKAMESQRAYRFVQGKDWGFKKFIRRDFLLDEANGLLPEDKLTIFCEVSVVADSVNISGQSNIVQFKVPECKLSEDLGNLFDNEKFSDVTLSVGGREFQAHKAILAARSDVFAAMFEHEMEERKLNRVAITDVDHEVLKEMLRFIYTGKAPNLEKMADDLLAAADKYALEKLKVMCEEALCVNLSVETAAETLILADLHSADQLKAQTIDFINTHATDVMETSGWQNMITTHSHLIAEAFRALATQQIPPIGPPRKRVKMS

Substance | effect of a mutation on the interaction
Transcriptional activator cubitus interruptus (Drosophila melanogaster (Fruit fly)), P19538 S373D | disrupting interaction strength
Transcriptional activator cubitus interruptus (Drosophila melanogaster (Fruit fly)), P19538 S372A | disrupting interaction strength
Transcriptional activator cubitus interruptus (Drosophila melanogaster (Fruit fly)), P19538 E369A | disrupting interaction strength
Transcriptional activator cubitus interruptus (Drosophila melanogaster (Fruit fly)), P19538 S375A | disrupting interaction strength
Transcriptional activator cubitus interruptus (Drosophila melanogaster (Fruit fly)), P19538 S375D | disrupting interaction strength

Further lines, results first:

effect of a mutation on the interaction | Substance
disrupting interaction strength | Transcriptional activator cubitus interruptus (Drosophila melanogaster (Fruit fly)), P19538 S373A
disrupting interaction strength | Transcriptional activator cubitus interruptus (Drosophila melanogaster (Fruit fly)), P19538 T374D
disrupting interaction strength | Transcriptional activator cubitus interruptus (Drosophila melanogaster (Fruit fly)), P19538 T374A
